Measurements published in US20070134663.

What was measured:
[1] = target: FLAG-Luc [luciferase: P08659]
MSN-V5-His, P26038 = target: T1, MSN-V5-His, P26038
T1 chain: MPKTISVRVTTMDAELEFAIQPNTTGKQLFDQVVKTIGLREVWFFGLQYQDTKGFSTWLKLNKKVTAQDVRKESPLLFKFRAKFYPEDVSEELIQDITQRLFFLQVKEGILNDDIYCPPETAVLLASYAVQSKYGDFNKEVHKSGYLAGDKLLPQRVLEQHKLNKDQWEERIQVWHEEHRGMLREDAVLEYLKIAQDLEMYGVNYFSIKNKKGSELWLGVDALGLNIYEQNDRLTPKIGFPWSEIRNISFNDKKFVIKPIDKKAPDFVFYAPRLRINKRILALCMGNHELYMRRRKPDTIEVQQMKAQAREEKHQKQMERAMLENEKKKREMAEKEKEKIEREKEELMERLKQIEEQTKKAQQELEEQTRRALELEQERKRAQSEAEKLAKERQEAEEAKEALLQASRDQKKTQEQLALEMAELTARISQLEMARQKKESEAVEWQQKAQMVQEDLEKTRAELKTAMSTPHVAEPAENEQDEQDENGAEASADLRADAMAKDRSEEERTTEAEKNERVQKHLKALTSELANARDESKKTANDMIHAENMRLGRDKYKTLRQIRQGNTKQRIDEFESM

Chain of FLAG-Luc [luciferase: P08659] (P08659 whole entry): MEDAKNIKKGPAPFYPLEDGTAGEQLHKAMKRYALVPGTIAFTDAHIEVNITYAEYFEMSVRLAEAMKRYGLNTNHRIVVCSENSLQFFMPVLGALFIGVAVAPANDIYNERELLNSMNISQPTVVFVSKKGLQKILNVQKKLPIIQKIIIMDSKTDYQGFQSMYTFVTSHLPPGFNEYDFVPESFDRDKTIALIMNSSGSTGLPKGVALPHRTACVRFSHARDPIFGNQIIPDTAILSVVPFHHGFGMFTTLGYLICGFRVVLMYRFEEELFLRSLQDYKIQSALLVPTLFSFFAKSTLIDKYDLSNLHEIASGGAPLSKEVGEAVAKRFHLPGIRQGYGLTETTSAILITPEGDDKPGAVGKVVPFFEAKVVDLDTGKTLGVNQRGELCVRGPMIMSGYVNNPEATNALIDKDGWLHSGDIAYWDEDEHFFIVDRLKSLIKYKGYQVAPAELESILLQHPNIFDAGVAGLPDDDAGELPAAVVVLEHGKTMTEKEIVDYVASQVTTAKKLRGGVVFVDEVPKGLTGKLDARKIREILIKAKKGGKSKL
Chain of FLAG-KPNA1, P52294 (P52294 whole entry): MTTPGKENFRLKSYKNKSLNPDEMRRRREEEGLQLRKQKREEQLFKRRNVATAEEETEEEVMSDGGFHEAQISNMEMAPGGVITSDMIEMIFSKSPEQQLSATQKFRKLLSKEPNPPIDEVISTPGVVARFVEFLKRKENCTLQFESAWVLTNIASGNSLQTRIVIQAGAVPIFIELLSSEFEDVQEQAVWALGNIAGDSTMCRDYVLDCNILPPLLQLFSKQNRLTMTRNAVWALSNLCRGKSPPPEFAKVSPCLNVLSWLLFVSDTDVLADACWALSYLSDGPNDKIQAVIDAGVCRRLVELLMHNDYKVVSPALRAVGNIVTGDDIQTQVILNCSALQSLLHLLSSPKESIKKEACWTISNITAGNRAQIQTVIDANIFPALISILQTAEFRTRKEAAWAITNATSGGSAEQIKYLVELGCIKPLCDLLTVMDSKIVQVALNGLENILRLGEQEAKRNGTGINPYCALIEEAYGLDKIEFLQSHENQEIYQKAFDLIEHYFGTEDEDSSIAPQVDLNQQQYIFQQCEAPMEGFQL

B1: purified PKC theta (Upstate) (protein)
chain: MSPFLRIGLSNFDCGSCQSCQGEAVNPYCAVLVKEYVESENGQMYIQKKPTMYPPWDSTFDAHINKGRVMQIIVKGKNVDLISETTVELYSLAERCRKNNGKTEIWLELKPQGRMLMNARYFLEMSDTKDMNEFETEGFFALHQRRGAIKQAKVHHVKCHEFTATFFPQPTFCSVCHEFVWGLNKQGYQCRQCNAAIHKKCIDKVIAKCTGSAINSRETMFHKERFKIDMPHRFKVYNYKSPTFCEHCGTLLWGLARQGLKCDACGMNVHHRCQTKVANLCGINQKLMAEALAMIESTQQARCLRDTEQIFREGPVEIGLPCSIKNEARPPCLPTPGKREPQGISWESPLDEVDKMCHLPEPELNKERPSLQIKLKIEDFILHKMLGKGSFGKVFLAEFKKTNQFFAIKALKKDVVLMDDDVECTMVEKRVLSLAWEHPFLTHMFCTFQTKENLFFVMEYLNGGDLMYHIQSCHKFDLSRATFYAAEIILGLQFLHSKGIVYRDLKLDNILLDKDGHIKIADFGMCKENMLGDAKTNTFCGTPDYIAPEILLGQKYNHSVDWWSFGVLLYEMLIGQSPFHGQDEEELFHSIRMDNPFYPRWLEKEAKDLLVKLFVREPEKRLGVRGDIRQHPLFREINWEELERKEIDPPFRPKVKSPFDCSNFDKEFLNEKPRLSFADRALINSMDQNMFRNFSFMNPGMERLIS
phosphorylation of substrate, in vitro kinase assay with gamma-32P-ATP, SDS-PAGE and autoradiography (FLAG-KPNA1, P52294): phosphorylated band of KPNA1 (molecular weight of about 63 kDa) was observed
phosphorylation of substrate, in vitro kinase assay with gamma-32P-ATP, SDS-PAGE and autoradiography [1]: the negative control Luc does not contain phosphorylated band (molecular weight of about 62 kDa)
phosphorylation of substrate, in vitro kinase assay with gamma-32P-ATP, SDS-PAGE and autoradiography (MSN-V5-His, P26038): the positive control MSN contains phosphorylated band (molecular weight of about 71 kDa)
